Experimental data as given in patent publication US20150184163A1.

Molecular target: TSLP Receptor (TSLPR), heterodimer of the IL7 receptor alpha (IL7Rα) chain and the TSLP-specific receptor chain (TSLPR; Crlf2), on mouse DRG sensory neurons (mouse) (UniProt Q8CII9)
Test: cell-based or functional assay

Sequence of TSLP Receptor (TSLPR), heterodimer of the IL7 receptor alpha (IL7Rα) chain and the TSLP-specific receptor chain (TSLPR; Crlf2), on mouse DRG sensory neurons (mouse) (Q8CII9 20-359, chain 1 of 2): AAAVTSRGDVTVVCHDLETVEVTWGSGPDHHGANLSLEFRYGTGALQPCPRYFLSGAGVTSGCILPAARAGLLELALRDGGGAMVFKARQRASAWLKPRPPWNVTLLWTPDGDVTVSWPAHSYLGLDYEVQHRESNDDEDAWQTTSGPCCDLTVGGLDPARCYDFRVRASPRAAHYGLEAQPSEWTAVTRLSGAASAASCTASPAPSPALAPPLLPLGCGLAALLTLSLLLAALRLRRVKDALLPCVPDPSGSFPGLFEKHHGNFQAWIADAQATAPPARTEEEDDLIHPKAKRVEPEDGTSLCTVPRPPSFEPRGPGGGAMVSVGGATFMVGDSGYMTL
Sequence of TSLP Receptor (TSLPR), heterodimer of the IL7 receptor alpha (IL7Rα) chain and the TSLP-specific receptor chain (TSLPR; Crlf2), on mouse DRG sensory neurons (mouse) (P16872 21-459, chain 2 of 2, further chain): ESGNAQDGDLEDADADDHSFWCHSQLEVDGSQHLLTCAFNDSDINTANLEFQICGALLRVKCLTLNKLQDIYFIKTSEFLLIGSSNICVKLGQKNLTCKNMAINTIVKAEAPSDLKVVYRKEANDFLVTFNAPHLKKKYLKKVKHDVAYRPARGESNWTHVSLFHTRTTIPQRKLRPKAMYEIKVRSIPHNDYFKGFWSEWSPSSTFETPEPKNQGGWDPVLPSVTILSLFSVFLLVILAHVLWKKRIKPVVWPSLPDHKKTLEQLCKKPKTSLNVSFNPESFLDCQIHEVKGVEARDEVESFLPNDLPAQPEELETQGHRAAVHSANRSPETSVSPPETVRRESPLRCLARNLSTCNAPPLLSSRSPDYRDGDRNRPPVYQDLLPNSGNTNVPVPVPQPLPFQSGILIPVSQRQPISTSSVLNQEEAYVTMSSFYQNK

prevalence of DRG neurons with increases in intracellular Ca2+ following TSLP application (ratiometric Ca2+ imaging): 4.1%
Substance: Thymic Stromal Lymphopoietin (TSLP) (ligand)
